The text below walks through data of a protein production outcome set (Wang et al. 2014).

This data set in a line: label from the status in PepcDB records.
Regarding “MLSFILSIFPIVLLIYLMVKRNALPSYVALPWVATLVMGVHLLHFNTDIVTISANVVSAIIAVQTPITVIFGAILFNRFSEISGATNIMRKWLGNINPNPVAQLMIIGWAFAFMIEGASGFGTPAAIAAPILVGLGFHPLKVAMLALIMNSVPVSFGAVGTPTWFGFGALKLSEDMILEIGSITAFIHSIAALIIPLLALRILVNWDDIRKNIVFIYISVLGCVVPYFLIAQVNYEFPSLVGGAIGLFISVWAANRNIGLAKVTNTLDNNAVSAGEVVKALFPTGLLIAFLIVTRIHQLPFKAMMNDATIWFSTTLGSLGLFEISKGLIFSLKNIFGSNVSSSYKLLYVPALIPFVITVLIAIPFFKISSSNVKQILVSSLQQSKNPFIALIGALVMVNLMLVGGEHSMVKIIGRTFAEISGSNWTIFSSFLGAIGSFFSGSNTVSNLTFGSVQLSTAETTGISVALVLALQSVGGAMGNMVCINNIVAVSSVLNISNQEGTIIKKTIIPMIIYGIIAALGALFLVPLFYNL”, the protein production entry is reported as “failed”.
The same measure for “KRRIRQLELQVRMLEADKERLERELSRLRSEMSRLRQPPAFAGSVIEVLDDDRAIVQNYNGPRFVVRIAPWIDKSKLRPGTRVALDQRTMAIIEILPASKDPAVLGFEVVERPN”: “not failed”; for “MTPNNIVSRTEMDNGIQGFYKDKVVFLTGATGFLGKVIIEKLLRTTEVKRIYAMMRPKRGKDIQERLAIWQKDPLFEVLLKAKPDALKRIFVIAGDCLDPDLGINRSDRKLLVSEVHIVIHGAATVRFNEPLHVALAINTRGTRLMLQLAKEMLQLEAYLHISTAFSNCVIFRIEEKFYPEHLTCDANSVLAMSELLSEQMMDKLAPTLVGNFPNTYTYTKALAEDVVLREFGDLPLSIFRPSVIIATHEEPVSGWIDNLYGPIAHIYGVSHGVLRLTTYDKDGYASLVPVDYCANAALASIWQTSKDKSQRNAISQPAIYTLAPSEKNLLLNTDFIKHSLIHRNDFPLTKMIWYPFVHNISNPRIFPLAAFFYHTLPGYFYDLALRLSGRKPRLVKLYRSIHANIAVLEHFMNNSWHFETKSTDRLRVMMSPEDRRLYNFDMETLDWKEYFRKALFGMRLYLTKEPPTQESLEQGRRLFYRWLLIVDACQVIYLI”: “failed”; for “MRLNHNSYEIFDFMRSRSAIGVLSKIIITIPPINLRMIIGVMGPEGSYSERAAKLWARKNGLRGAEFHYFADIEDAFLAAVGGKTDISVVPVENSIEGSVGVTLDLLLENEAVIIGEIVVKIEHCLLSKGEPEKIRVILSHPQGLAQCRHFLKTHFPEAELRSTGSTSHAARLAGEFEEMAAIASPEAAERYGLKILLSNVQDRKENHTRFIVVRGGEKVLSGKIKGKADSGEKLNTVFGRNAEHKLCSETETGTENSSSYAFKTSLIVYLEKDRPGALYEPLGFFAKRGINLTKIESRPSKKELGDYYFYIDLEGNISDVLIKDALEDIKSKASKKSRSSTLKVLGSYPAFKK”: “failed”.
Take “MSELIKHSSNFLAAISPDNDCSITATNDFEAMMSWLNGYKKKPINTSRNYAREVKRYLIWLSCQGLTLAQVKIEDVYEYFNLLERPTTEWIIPDKKTDKIYPTQLIKYGGLSNRSINYTHTVLGLFYSFLQDAGYLTKNPINLVKKASATTESEQYRHLDLPAWQTLWTWILGYENRVITEDQPAKMIKKASRYRWVFALLYHSGIRCAEAANALMSDLVRKNNTWSLKVTGKGNKMRLVTVNSLLLKELIHYRRSLLLTDYPSSHDDTPLIVSIQKNRQGSMTTRTLSSLIKEVTELVCADCQDDQITRQIETMTTHWLRHTNATHRFMAGASLETTQDELGHADPRTTRIYAKTSNEKRKLDAERLADLFDGIG”: the protein production entry is “failed”.
Then “MNIQLSPLEARVIGCLIEKEVTTPDHYPLTLNSLTTACNQKSNREPVLNLSEAEVQDTVEGLIARRLVSDESSFNSRTSKYQHRFCNTEFGDLKLNQQELGLICCLLLRGAQTPGELRTRTNRLCTFTDVKETEAVLERLANRDSGALVVKLPREPGKRESRYHHLFCGEVDMAA”, with “not failed”; and “LGIAINEMIRMLRAARDEDDRRNWLKDGYGQVSAALTGDLTTEQLADAAIGLIGRYLDAGRGVFYLYRDAEQRLDLIGSYMYTERNNLGASFALGEGAVGQVARERKPIILEVSGDDAAPIVTGTMLALPRYTYTYPLLHEKELVGVIELSSFDHFDERKLEFLANVGGMLASFL”, with “failed”.
Then “MAADVVFPGLCVFLSAGLLLALVHGRRVGRRADRQCRHLAAITDTMSEGFYVVDGDDRIVMANAAAGRILGYTQDDLIGACAHALFHARSADDPDPVPLEECRLNRAVRERRAAFLDVGHFRHRSGKIIAVEVSCNPVADTLAEEGRRGGLLGWLLDGDDAEGAPGALLSMVTFVDITARRESEAAVIKLSHAVEQSSASIVITDADGRIEYANPAFTKISGYTAQEAIGRRPSILKSGLVPAETYRALWQTITNGGEWRGEFHNRRKDGTLYWEMASISPIRDARGKITNFVAVKDDVTERKAIESELYHRANYDALTGLPNRQLLLDRVSTALDLARRHDRRVAVMFMDIDRFKQINDSMGHAAGDVLLKQAASRLAAVLRPQDTLGRLGGDEFLVVAPGLRWESEATALASRLLEVARRPFTIDGREVYVSVSIGVSLGPVDGTTAQALMRNADAAMYLAKGGGRDAAHFFTPDIEAAARRRMLIENGLRTAVSDGSLYLALQPIIACADHTMIKAEALLRWTHPQLGGVPPSEFIPIAEESGLIRAIGAWVIEEAARLLVSLDPPRDGAFRLGINIASSQFTGGLHHHVAGMLARYDLDPRMLEIEITERMLLDPSPAILEQVDALRAMGVSIAIDDFGTGYSALSYLSVFHVDTLKIDRAFVSVMTDEARSQALIGAIVALGHELGCAVVAEGVETADQARLLGELAVDALQGYFLGRPTTAEAISDRLNPGTGRPYDKAALGTEFAEGGDLGLSVGAL”, with “failed”; and “MSGGQQERHVLILNTVGGRRAIALEAAAYSLGRDESNAIVIDFETVSRQHAILLRVPVPGTTSYRYRLVDGNANGKPSTNGTFVNGKRISSHELQHGDVILFGRKAKASYLLLSMADTEFSQYLQSIAFQSIKSDLRGAKETLVGMELSGELRRTPNRELVAAGATQLHPELEPAKDTLSSESDSEPKGNNKETLHEKESQGSKTNLVALGAIALVVVAIIAGAVWRAGFSANPPQGSPPATPTRN”, with “failed”.
Then “MRVSCLSLPWHTPKALLHETITQTYLLWHIVLEHMDIVIVGAGRVGSRTARVVTNEDHAVTVIEQDYDRAERARTEGFDVVEGDGTSEDTLLDAGIDTADAIGALTSDLNTNFIACMVGNHHDCRTVLRIDEDYREDIYRKYADEVDEIVYPERLGAIGAKNALLGGNVTAIADLAEHLQVVQLTVTDEAPMRGYSISELELPAGARLLAFGKHDASLALPLPSETLETGDRIAVLAEFDTLDSVRQILVGNAPPTEVA”, with “failed”; and “MNGHAFFFAGVRLTALPSGALWWPAERLLCVSDLHLGKAERLARRGGTLLPPYETQATLARLEADLEATGAERVLCLGDSFDDGAAADGLAEPERLWLRRLMTGRDWIWILGNHD”, with “failed”; and “MPLTDTALKALKPRDRIYSVADERGLSVEVYPTGGIVWRFRYRLAGRYEKLTLGKYPALSLRNARLKRDEAASLVAMGTSPARQKQLAKVTAADAMTVRDFAERFFREIQSRDRKDSTMPRRYLDKDILPFVGDKPMREVTAEEIRSLIWRKKEQGFDATAGQIRGVLKRLCDYAVTCGLMPTNPVLALPMRHVYKAVSRDRALSPDEIRLFLRAVWASRIRRQFKLALHLILLTMVRKSELLLARWDHVHLDQAQWHIPAEHSKTGKPHIVYLSRQAVVLFEALRVLAGGSALVMPGSGTLTRPFAHNALNHALGKAMQWQGIHAFTIHDLRRTASTWLHEHGWASDVVEKALNHSIGGVRGVYNRAEYADQRRQMLQCWADFIEKQLKTDHLLMVCHTELDGAKPGTP”, with “failed”.
Take “MTRRGVALVARRLPSSPGRVYAVKIDEGEDVHSVLSSLAEAEDLGFAMVTGIGGMAEATVAFYSPPEATYYTVDVKPPEGRVIEVAAMTGNIVKTSQGYSVHIHVALGVSPGKSISGHLVKGVVKPFMEVFVVELVSGQGTPGTSVFDHREGFKASYKRLELEHHHHHH”: the protein production entry was “failed”.
As for “MAHACVSTSASSLRFTAGFVSASPNGSSFDSPKLSLPFEPLRSRKTNKLVSDRKNWKNSTPKAVYSGNLWTPEIPSPQGVWSIRDDLQVPSSPYFPAYAQGQGPPPMVQERFQSIISQLFQYRIIRCGGAVDDDMANIIVAQLLYLDAVDPTKDIVMYVNSPGGSVTAGMAIFDTMRHIRPDVSTVCVGLAASMGAFLLSAGTKGKRYSLPNSRIMIHQPLGGAQGGQTDIDIQANEMLHHKANLNGYLAYHTGQSLEKINQDTDRDFFMSAKEAKEYGLIDGVIMNPLKALQPLAAA”, the protein production result was “failed”.
